Positions count from the first letter of the chain named.
T1: DCmut-1 (FlhDC complex with FlhC K42E, K45E) (E. coli, UniProt P0A8S9 1-116; P0ABY7 1-192, K42E | K45E)
T1 construct: FlhD, E. coli; FlhC, E. coli; Lys42 and Lys45 substituted by Glu; Probably carries the C-terminal His-tag on FlhC as the wild-type complex does; the methods say only that mutants were cloned into pGL01; source: E. coli, purified
T1 sequence 1: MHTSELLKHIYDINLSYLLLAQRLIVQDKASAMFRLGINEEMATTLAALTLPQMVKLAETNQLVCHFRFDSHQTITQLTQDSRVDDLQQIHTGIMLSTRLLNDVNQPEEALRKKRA
T1 sequence 2: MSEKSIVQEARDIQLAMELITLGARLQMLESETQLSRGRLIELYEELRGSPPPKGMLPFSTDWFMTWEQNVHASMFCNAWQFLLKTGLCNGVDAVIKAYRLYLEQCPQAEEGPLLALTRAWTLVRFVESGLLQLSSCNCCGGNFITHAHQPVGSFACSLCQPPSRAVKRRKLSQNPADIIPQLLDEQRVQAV

T2: DCmut-2 (FlhDC complex with FlhC R37E, R39E, K42E, K45E) (E. coli, UniProt P0A8S9 1-116; P0ABY7 1-192, R37E | R39E | K42E | K45E)
T2 construct: FlhD, E. coli; FlhC, E. coli, four substitutions; Probably carries the C-terminal His-tag on FlhC as the wild-type complex does; the methods say only that mutants were cloned into pGL01; source: E. coli, purified
T2 sequence 1: T1 sequence 1
T2 sequence 2: T1 sequence 2 with R37E, R39E

T3: FlhD4C2 complex (E. coli, UniProt P0A8S9 1-116; P0ABY7 1-192)
T3 construct: FlhD, E. coli, from the whole flhDC operon; FlhC, E. coli, from the whole flhDC operon; also called FlhDC; FlhDC-His; source: E. coli BL21(DE3), co-expression from the whole flhDC operon in pET21b; purified; also co-expressed with YdiV (in lysate); not shown: His-tag, C-terminal, kept; copies: 4 + 2
T3 sequence 1: T1 sequence 1
T3 sequence 2: T1 sequence 2 with E42K, E45K

B1: FlhD fragment 1–82aa (domain or fragment, E. coli, UniProt P0A8S9 1-82, looked up)
chain: MHTSELLKHIYDINLSYLLLAQRLIVQDKASAMFRLGINEEMATTLAALTLPQMVKLAETNQLVCHFRFDSHQTITQLTQDS
notes: FlhD, E. coli, residues 1-82; also called FlhD (1–82aa); source: E. coli, purified recombinant protein
B2: FlhD-His (natural protein, E. coli)
chain: T1 sequence 1
notes: FlhD, E. coli; the flhD gene was cloned into pET29b and pGL01; source: E. coli BL21(DE3): co-expressed with YdiV (in lysate); purified as bait for the pull-down
B3: FlhD fragment 1–71aa (domain or fragment, E. coli, UniProt P0A8S9 1-71, looked up)
chain: MHTSELLKHIYDINLSYLLLAQRLIVQDKASAMFRLGINEEMATTLAALTLPQMVKLAETNQLVCHFRFDS
notes: FlhD, E. coli, residues 1-71; also called FlhD (1–71aa); source: E. coli, purified recombinant protein
B4: FlhD fragment 1–98aa (domain or fragment, E. coli, UniProt P0A8S9 1-98, looked up)
chain: MHTSELLKHIYDINLSYLLLAQRLIVQDKASAMFRLGINEEMATTLAALTLPQMVKLAETNQLVCHFRFDSHQTITQLTQDSRVDDLQQIHTGIMLST
notes: FlhD, E. coli, residues 1-98; also called FlhD (1–98aa); source: E. coli, purified recombinant protein
B5: FlhD fragment 1–106aa (domain or fragment, E. coli, UniProt P0A8S9 1-106, looked up)
chain: MHTSELLKHIYDINLSYLLLAQRLIVQDKASAMFRLGINEEMATTLAALTLPQMVKLAETNQLVCHFRFDSHQTITQLTQDSRVDDLQQIHTGIMLSTRLLNDVNQ
notes: FlhD, E. coli, residues 1-106; also called FlhD (1–106aa); source: E. coli, purified recombinant protein
B6: YdiV (natural protein, E. coli)
chain: MKIFLENLYHSDCYFLPIRDNQQVLVGVELITHFSSEDGTVRIPTSRVIAQLTEEQHWQLFSEQLELLKSCQHFFIQHKLFAWLNLTPQVATLLLERDNYAGELLKYPFIELLINENYPHLNEGKDNRGLLSLSQVYPLVLGNLGAGNSTMKAVFDGLFTRVMLDKSFIQQQITHRSFEPFIRAIQAQISPCCNCIIAGGIDTAEILAQITPFDFHALQGCLWPAVPINQITTLVQR
notes: YdiV, E. coli; the ydiV gene was cloned into pET29b and pGL01; His-tag removal by PPase is stated for prey proteins of the pull-down; The crystal of YdiV alone (3TLQ) was phased with Se-Met-YdiV; also called native YdiV; wild-type YdiV; source: E. coli BL21(DE3), purified (Ni2+-NTA, Source-Q, Superdex 200)

Legend:
YdiV = molecular target: B6; assay: pull-down; His-tagged bait immobilised on Ni2+-NTA beads, prey with His-tag removed by PPase; 4°C, 30 min; 25 mM Tris-HCl pH 8.0, 100 mM NaCl; eluted with 250 mM imidazole; SDS-PAGE, Coomassie; settings: both partners purified
[1] = molecular target: T1, DCmut-1 (FlhDC complex with FlhC K42E, …); assay: as above; settings: both partners purified
[2] = molecular target: T2, DCmut-2 (FlhDC complex with FlhC R37E, …); assay: as above; settings: both partners purified
FlhD4C2 complex [3] = molecular target: T3, FlhD4C2 complex; assay: SEC; YdiV and FlhD4C2 mixed at molar ratios 5:1, 4:1, 3:1, 2:1 or 1:1 for 10 min at room temperature; Superdex 200; fractions on SDS-PAGE; settings: both partners purified
FlhD4C2 complex [4] = molecular target: T3, FlhD4C2 complex; assay: cell-based or functional assay

| Binder | binding result (YdiV) | further results |
| --- | --- | --- |
| B1 | binds |  |
| B2 | binds |  |
| B3 | binds |  |
| B4 | binds |  |
| B5 | binds |  |
| B6 |  | binding result [1]: binds; binding result [2]: binds; stoichiometry N (FlhD4C2 complex [3]): 4 YdiV per FlhD4C2; EMSA: DNA binding of FlhD4C2 (49-bp flhB promoter) with 5-fold excess of YdiV and at different molar ratios of YdiV:FlhD4C2 (FlhD4C2 complex [4]): > 3 molar ratio YdiV:FlhD4C2 |
